Measurements as given in the supplement of paper PMC9170038.

System: MS2 coat protein
Assay: apparent KD of MS2 coat protein; designed switch direction (-1 OFF switch, 1 ON switch): -1; higher = weaker reporter binding
Method in brief: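 SNAP-549-labelled MS2 coat protein was titrated, doubling from 0.7 or 1.5 nM to 3 µM, over designed RNA switches transcribed on Illumina chips by stalled E. coli RNA polymerase. Runs were done without input, with 200 uM small-molecule ligand, or with an oligonucleotide input. Apparent KD is the per-design median over clusters of curve-fitted normalised fluorescence.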

[1] = Eterna round: R95, input ligand: microRNA oligo, concentration not stated
[2] = input ligand: microRNA oligo, concentration not stated
[3] = Eterna round: R95, input ligand: FMN 200 uM
[4] = Eterna round: R95, input ligand: none

| Sequence | apparent KD of MS2 coat protein [1] [nM] | apparent KD of MS2 coat protein (input ligand: FMN 200 uM) [nM] | apparent KD of MS2 coat protein [2] [nM] | apparent KD of MS2 coat protein (input ligand: none) [nM] | apparent KD of MS2 coat protein [3] [nM] | apparent KD of MS2 coat protein [4] [nM] |
| --- | --- | --- | --- | --- | --- | --- |
| UUUUAACAUGAGGAUCACCCAUGUGAGGAUAUCGAAAUUUAUAUUAAUAUUAUUAAUACGAGAAGGCACAUUUU [JMF 38] (puzzle: Exclusion 1) | 36.2 | – | – | – | – | – |
| AAGUCAGCAGGAUAUGCGAUGUUGGGCUAGGUAGCGUGACCACAUGAGGAUCACCCAUGUAGAAGGGCUGGCUA [EX2 Malc#36] (Eterna round: R96, puzzle: Exclusion 2) | – | 45.6 | 21.9 | 29.7 | – | – |
| GACUGAAUUUUGUUUGGUUACAUGAGGAUCACCCAUGUUGGUCUAAGAACAUGUCUUUUGUACGCUUGUCUUAUAUA [JR_SV3TOV1_Sub069] (puzzle: Sensor v3, turn-off variant 1) | 44.9 | – | – | – | 68.9 | 100 |
| AUCACGGAUGUAAGGAUAUACAAAACCAUAAGGUAGUAGAAGGUACAUGAGGAUCACCCAUGUGCAUAUGUUUA [BmEX4 C.14] (Eterna round: R97, puzzle: Brourd's mod of Exclusion 4) | – | 18.5 | – | 16.2 | – | – |
| AGAUCACAUGAGGAUCACCCAUGUCAGGAUAUCGUCACUGGAGCUUCGGCUCCAGUGACGAGAAGGGACAAUUA [E1/1-A3] (Eterna round: R97, puzzle: Exclusion 1) | – | 304 | – | 161 | – | – |
| UCCAAGCGGAAGCAAUGAAACAUGAGGAUCACCCAUGUCCCGGUGGUCAUUCACCCAAGCUUUUUGUAGUCAACCUU [Eternabot (L1) Solution 42] (Eterna round: R97, puzzle: Sensor, turn-off variant 1) | – | 249 | – | 297 | – | – |
| UUAUUAUAUGUAGGAUAUGCAUAUUAUUAUUAUGCAGAAGGACAUGAGGAUCACCCAUGUAUAUUAUUAUUAUAUAUUAUAUGU [Title] (Eterna round: R96, puzzle: Exclusion NG 1) | – | – | 33.8 | – | – | – |
| GGAUUACAUGAGGAUCACCCAUGUCAGGAUAUACGAUCAUAUGCCGAAAGGCAUAUGAGUAGAAGGGACAAUAU [AK-MS2ROC-r4-exclusion1-2.0] (Eterna round: R97, puzzle: Exclusion 1) | – | 46.2 | – | 36.1 | – | – |
| ACAUGAGGAUCACCCAUGUCCGGCUGGUCCGUCUCGGCUGUCGAGGAUAUAGCUCGGUGUCCGCGCUAGAAGGUGGGAGCCGGC [Aenatbe mod 72] (Eterna round: R96, puzzle: Exclusion NG 3) | – | 212 | 134 | 217 | – | – |
| UUAAUUAAUGUGAGGAUAUCUAGAGCCUCGGCUCUAGAGAAGGCACAUGAGGAUCACCCAUGUCUCAAUUAAUU [BmEx4/2-E2] (Eterna round: R97, puzzle: Brourd's mod of Exclusion 4) | – | 33.9 | – | 23.6 | – | – |
| GCAGGUUAAGUCAGGAUAUACCUAUGGAUACAUAGGUAGAAGGGACAUGAGGAUCACCCAUGUGCCUCACCUGC [Mod of Eli - Jieux - Brourd's mod of Exclusion 4] (Eterna round: R97, puzzle: Brourd's mod of Exclusion 4) | – | 109 | – | 26.1 | – | – |
| GCAGCAUAGUUUACUAACUGUUACAUGAGGAUCACCCAUGUCUAGGAUAUGGUCUGGAUUACAGGCCAGAAGGAGGCAAGCUGC [Eli exng3 - 035] (Eterna round: R96, puzzle: Exclusion NG 3) | – | 11.8 | 16.8 | 19.8 | – | – |
| UUAUUAUAUGUAGGAUAUGCAUAUUGUUGUUAUGCAGAAGGACAUGAGGAUCACCCAUGUAUAUUAUUGUUGUGUAUUAUAUAU [Title] (Eterna round: R96, puzzle: Exclusion NG 1) | – | 57.1 | 29.1 | 33 | – | – |
| CCAGCGAGUGUGAGGAUAUGCUGGUCCUUGGAUCAGCAGAAGGCACAUGAGGAUCACCCAUGUGAAAACGUUGG [JL bmx4 3.30] (puzzle: Brourd's mod of Exclusion 4) | 21.8 | – | – | – | – | – |
| CACGGACGAUAAGGAUAUGUUAUAGCUCAAACAGCAGAAGGUGUUAAACCACCGUCACAUGAGGAUCACCCAUGUGUGACAGUU [Eternabot solution 34] (Eterna round: R96, puzzle: Exclusion NG 1) | – | 46.5 | 30.7 | 40.3 | – | – |
| CACCGUUAUAUAGGAUAUGUUACAUGAGGAUCACCCAUGUAAUAAAUGAGAAUUUCGAAUGUAAUACAGAAGGAUAGAAUCGGC [Ostracism 72 - Jieux - Exclusion NG 2] (Eterna round: R96, puzzle: Exclusion NG 2) | – | 27.2 | 18.1 | 22.9 | – | – |
| GUAGAUCGAGUUAGGAUAUGAUUAAAAUUCGGAUAUCAGAAGGAACUUGAGGAUCACCCAAGUAUAGAUGAUUC [JR_BMEx4_Sub057] (Eterna round: R97, puzzle: Brourd's mod of Exclusion 4) | – | 135 | – | 29.8 | – | – |
| CCUCCACAUGAGGAUCACCCAUGUCAGGAUAUCGUGUGUUUUUUUUCGGUCUUUCGUGCGAGAAGGGACGUCUU (puzzle: Exclusion 1) | 30.8 | – | – | – | – | – |
| UGCAUGUAAGGAUAUGCAACCUGCGCUCAUUAGCAGGUCAAGCAGAAGGUACAUGAGGAUCACCCAUGUGUCCG [Tebisoma] (Eterna round: R96, puzzle: Exclusion 4) | – | 462 | 25.2 | 31.6 | – | – |
| AUUGAUGUUGAGGAUAUGCUUUUAUUUAUUAUAGCAGAAGGCGAUACAUGAGGAUCACCCAUGUUCAUGGCUUU [JR_E6_Sub097] (puzzle: Exclusion 6) | 11 | – | – | – | – | – |
| CGUGUGUCAGGAUAUUAGUAAUGUAUGGAUACAUAUAUUACUGAGAAGGGACAUGAGGAUCACCCAUGUAUACG [JR_Ex4_Sub059] (Eterna round: R97, puzzle: Exclusion 4) | – | 158 | – | 79.9 | – | – |
| AGAGAGUCAGGAUAUCGAAGGUAGAGAAAAGGAGAGAGGUACGAGAAGGGACAUGAGGAUCACCCAUGUAGGUG [JR_Exclusion4)Sub014] (puzzle: Exclusion 4) | 286 | – | – | – | 526 | 381 |
| AAUAUGUUAGGAUAUCUCAGCUGCCCGUAAACAGGCUAGCGAGAGAAGGGACAUGAGGAUCACCCAUGUCAUCC [Eternabot (Original) Solution 2] (Eterna round: R97, puzzle: Exclusion 4) | – | 17.1 | – | 15.6 | – | – |
| GAUACCUAUGUAAGGAUAUAUAAAGAGAGCCGCCUGUAGAAGGUACAUGAGGAUCACCCAUGUUGGGAGACCGA [Eternabot (L1) Solution 17] (Eterna round: R97, puzzle: Brourd's mod of Exclusion 4) | – | 1160 | – | 1390 | – | – |
| UAUUAACAAGUAAGAUCCCACAUGAGGAUCACCCAUGUGCUCGUCUUAUAAGGUACUGUGACGAAAGUCACGGUACC [Sensor 3, v1 - 87] (Eterna round: R96, puzzle: Sensor v3, turn-off variant 1) | – | 13.8 | 367 | 16.9 | – | – |
